From patent US20220348617A1 (H LEE MOFFITT CANCER CENTER AND RESEARCH INSTITUTE, published 2022) come the findings set out here.

For one experiment, the target named is T1, Notch1 EGF domains 6-13 (human, UniProt P46531 218-526).
T1 construct: domain: EGF domains 6-13; Immobilised on a streptavidin sensor chip; the other passages say only 'Notch 1'
The experiment is described as follows: SPR, Notch immobilised, DLL4 flowed. Here is the method:
Binding affinities between DLL4 variants and Notch receptor subtypes were determined by surface plasmon resonance (SPR) (FIG. 7). Notch1 EGF domains 6-13, Notch2, EGF domains 6-13, or Notch 3 EGF domains 5-12 were immobilized on a sensor chip and various concentrations of DLL4 ligands were injected over the surface. A co-culture assay was used to monitor the inhibition of Notch signaling by DLL4.v3 (FIG. 8). A fluorescent Notch1 reporter cell line (CHO^N1) was co-cultured with 293T cells expressing wild-type human DLL4 (293TDLL4) in 96-well plates to activate signaling. This value was normalized to 100% Notch1 activation. A reduction in Notch1 activation was observed upon the addition of increasing concentrations of DLL4.v3 (20 nM, 200 nM, 2000 nM) to the co-cultures.

The target of another experiment is T2, Notch 3 EGF domains 5-12 (human, UniProt Q9UM47 197-505).
T2 construct: domain: EGF domains 5-12; the other passages say only 'Notch 3'
T2 sequence (looked up): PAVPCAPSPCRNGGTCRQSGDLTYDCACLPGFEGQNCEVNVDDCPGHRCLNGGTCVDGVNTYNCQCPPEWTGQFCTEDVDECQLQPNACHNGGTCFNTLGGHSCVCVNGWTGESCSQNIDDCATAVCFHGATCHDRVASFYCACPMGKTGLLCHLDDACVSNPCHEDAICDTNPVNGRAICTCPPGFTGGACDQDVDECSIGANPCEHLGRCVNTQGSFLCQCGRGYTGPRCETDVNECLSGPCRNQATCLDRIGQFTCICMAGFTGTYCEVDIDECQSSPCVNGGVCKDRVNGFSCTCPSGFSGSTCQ
The experiment is described as follows: SPR, Notch on streptavidin chip, DLL4 flowed. (Surface plasmon resonance follows binding to a sensor surface in real time, without labels.)

B1: wildtype (WT) human DLL4 (ligand)
chain: SGVFQLQLQEFINERGVLASGRPCEPGCRTFFRVCLKHFQAVVSPGPCTFGTVSTPVLGTNSFAVRDDSSGGGRNPLQLPFNFTWPGTFSLIIEAWHAPGDDLRPEALPPDALISKIAIQGSLAVGQNWLLDEQTSTLTRLRYSYRVICSDNYYGDNCSRLCKKRNDHFGHYVCQPDGNLSCLPGWTGEYCQQPICLSGCHEQNGYCSKPAECLCRPGWQGRLCNECIPHNGCRHGTCSTPWQCTCDEGWGGLFCDQDLNYCTHHSPCKNGATCSNSGQRSYTCTCRPGYTGVDCE
notes: Soluble protein flowed over immobilised Notch in SPR; also called wild-type DLL4
With B1, the binding result with Notch1 EGF domains 6-13 and with Notch 3 EGF domains 5-12 was “binds” each time.
